In paper PMC4284922:

T1: untagged STAT1, wild type (human), P42224
T1 chain: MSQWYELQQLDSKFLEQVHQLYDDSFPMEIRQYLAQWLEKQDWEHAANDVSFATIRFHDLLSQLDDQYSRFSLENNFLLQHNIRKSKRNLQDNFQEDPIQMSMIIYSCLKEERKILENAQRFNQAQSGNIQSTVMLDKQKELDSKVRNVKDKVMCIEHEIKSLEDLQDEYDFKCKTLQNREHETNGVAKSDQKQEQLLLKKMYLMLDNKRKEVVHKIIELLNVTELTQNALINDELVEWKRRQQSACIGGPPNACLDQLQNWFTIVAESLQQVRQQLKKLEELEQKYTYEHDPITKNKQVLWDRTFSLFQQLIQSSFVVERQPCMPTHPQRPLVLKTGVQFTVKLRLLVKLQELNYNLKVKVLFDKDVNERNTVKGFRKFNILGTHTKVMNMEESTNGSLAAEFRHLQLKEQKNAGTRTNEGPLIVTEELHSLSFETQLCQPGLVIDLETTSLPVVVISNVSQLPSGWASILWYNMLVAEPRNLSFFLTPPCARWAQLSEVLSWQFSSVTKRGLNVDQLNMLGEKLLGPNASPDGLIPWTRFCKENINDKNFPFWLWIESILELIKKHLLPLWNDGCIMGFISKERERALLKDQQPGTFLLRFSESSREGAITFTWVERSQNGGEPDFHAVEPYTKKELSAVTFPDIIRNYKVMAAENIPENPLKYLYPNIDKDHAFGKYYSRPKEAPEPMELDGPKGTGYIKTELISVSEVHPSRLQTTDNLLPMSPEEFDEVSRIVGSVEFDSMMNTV

B1: untagged STAT1, wild type, P42224 1-750 (natural protein)
chain: T1 chain
modifications: here or on the partner: phosphotyrosine at 701 (tyrosine-phosphorylated, from IFNγ-stimulated cells); phosphotyrosine at 701 (tyrosine-phosphorylated, from IFNγ-stimulated cells)

Legend:
STAT1 (Homo sapiens) = STAT1 (Homo sapiens) (UniProt P42224); assay: analytical ultracentrifugation; conditions: cited from earlier work
[1] = molecular target: T1, untagged STAT1, wild type (human), …; assay: native gel or EMSA; extracts with GFP-tagged and with untagged STAT1 mixed and co-incubated for 0, 15 or 30 min at room temperature with [33P]-labelled M67 (single GAS site); band of intermediate mobility; conditions: remark: other sources report otherwise

Molecule | Kd (STAT1 (Homo sapiens)) [nM] | half-life of the dimer [1] [min]
STAT1 (from UniProt P42224) | 50 | 
B1 |  | > 10
